From patent US20090208538A1 (published 2009)

Key:
[1] = biological target: T1, cdr2 (cerebellar degeneration-related 2 protein), human peptide on HLA-A*02:01 (human); assay: multimer staining
T1 peptide: LLEEMFLTV

[2] = biological target: T2, cdr2, human peptide on HLA-A*02:01 (human); assay: cytokine release
T2 peptide: SLLEEMFLT

[3] = biological target: T3, cdr2, human peptide on HLA-A*02:01 (human); assay: cytokine release
T3 peptide: SLLEEMFLTV

B1: cdr2 TCR (clone 11/12) (TCR, V domains shown)
Valpha: QQQVRQSPQSLTVWEGGTTVLTCSYEDSTFNYFPWYQQFPGEGPALLISILSVSDKKEDGRFTTFFNKREKKLSLHIIDSQPGDSATYFCAASGASGGSNAKLTFGKGTKLSVKS
Vbeta: DSGVVQSPRHIIKEKGGRSVLTCIPISGHSNVVWYQQTLGKELKFLIQHYEKVERDKGFLPSRFSVQQFDDYHSEMNMSALELEDSAMYFCASSLGGWAEQFFGPGTRLTVL
- binding result [1]: recognises
- binding result [2]: no recognition
- binding result [3]: recognises
